The record followed here is publication doi:10.1101/2025.09.04.674340.

The target in test [1] is RC1 Env SOSIP trimer (HIV-1 strain BG505). The test can be described thus: cryo-EM structure.
Test [2] concerns the target WIN332 Env SOSIP trimer (HIV-1 strain BG505). Description: cryo-EM structure.

B1: Ab1999 Fab (Fab, V domains shown)
VH: QVQLQESGPGLVKPSETLSLTCAVSGGSISDDYSWSWIRQPPGKGLEWIGYIYGSGGGTNYNPSLKNRVTISIDTSKNQFSLKLSSVTAADTAVYYCARIFAFITVFGVVTPEDNWFDVWGPGVLVTVSS
VL: DIQMTQSPSSLSASVGDRVTITCRASQSINNYLHWYQQRAGEAPKLLIYAASALQTGVPSRFSGSGSGTDFTLTISSLQPEDVATYYCQHSYGTPYSFGQGTKVEIK
Take B1: the stoichiometry N (Fab per Env trimer) in test [1] was 1.

B2: Ab1983 Fab (Fab, V domains shown)
VH: QLQLQESGPGLVKPSETLSLTCAVSGGSISSDYYYWSWIRQPPGKGLEWIGGIYSISESTNYNPSLKSRVTISKDTSKNQFSLKLSSVTAADTAVYFCARKDPYSSGWTPDYWGQGVLVTVSS
VL: QSVLTQPSSASASLGASVTLTCTLSSGYSNYAVDWHQQRPGKGPQFVMRVGTGGIVGSKGDGIPDRFSGSGSGLNRYLTIKNIQEEDESDYHCGADHGTGSSFVWVFGGGTRLTVL
With B2, the stoichiometry N (Fab per Env trimer) in test [2] was 2.
